Results from patent US20060172374.
Several values for one entry are separate records, joined by “and”; a condition that tells them apart may be missing. Equal entries are not always repeated.

What was measured:
bovine S100B (Sigma) = bovine S100B (Sigma) (UniProt P02638)
Sequence of bovine S100B (Sigma) (P02638 2-92): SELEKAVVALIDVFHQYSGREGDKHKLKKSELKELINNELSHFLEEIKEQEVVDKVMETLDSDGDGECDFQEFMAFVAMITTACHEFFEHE

Sequence of GST-NDR2 (chain, as listed by the source): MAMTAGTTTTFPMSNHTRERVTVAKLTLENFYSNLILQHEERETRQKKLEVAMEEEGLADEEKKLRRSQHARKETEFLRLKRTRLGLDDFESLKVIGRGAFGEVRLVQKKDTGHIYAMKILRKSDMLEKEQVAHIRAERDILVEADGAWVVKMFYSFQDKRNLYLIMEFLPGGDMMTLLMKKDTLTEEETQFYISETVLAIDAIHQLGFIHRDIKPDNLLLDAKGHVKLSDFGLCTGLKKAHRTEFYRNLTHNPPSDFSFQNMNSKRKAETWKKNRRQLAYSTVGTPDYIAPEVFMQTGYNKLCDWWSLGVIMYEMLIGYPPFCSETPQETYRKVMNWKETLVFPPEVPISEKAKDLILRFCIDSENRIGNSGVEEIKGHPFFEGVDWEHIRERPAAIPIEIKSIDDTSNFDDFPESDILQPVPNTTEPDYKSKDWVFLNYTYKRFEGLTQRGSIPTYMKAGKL
Sequence of myc-tagged hMOB1 (chain, as listed by the source): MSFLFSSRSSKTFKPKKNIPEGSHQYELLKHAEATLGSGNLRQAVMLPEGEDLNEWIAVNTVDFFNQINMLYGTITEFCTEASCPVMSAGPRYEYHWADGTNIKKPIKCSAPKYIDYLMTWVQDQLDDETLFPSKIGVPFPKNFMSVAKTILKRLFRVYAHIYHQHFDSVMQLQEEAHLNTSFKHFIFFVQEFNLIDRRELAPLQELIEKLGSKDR

Substance | autophosphorylation, incorporated 32P (Cerenkov counting), +S100B (bovine S100B (Sigma)) | specific activity, peptide kinase assay, after autophosphorylation +S100B (bovine S100B (Sigma)) | also measured
GST-NDR1 kinase dead (K118A) | 0.0064 | 0.222 | –
GST-NDR1 wild type | 0.351 | 21.3 | increase in autophosphorylation (bovine S100B (Sigma)): an approximate 2-fold increase in autophosphorylation (on both Ser281 and Thr444); increase in kinase activity (bovine S100B (Sigma)): about a 5-fold increase in kinase activity; phosphorylation on Ser281 and Thr444 (immunoblot with phosphospecific antibodies) (bovine S100B (Sigma)): Ca2+/S100B was found to enhance phosphorylation on both Ser281 and Thr444
GST-NDR1 T444A | 0.241 | 3.97 | –
HA-tagged NDR1 wild type | – | – | OA stimulated NDR kinase activity (peptide kinase assay of 12CA5 immunoprecipitates) (myc-tagged hMOB1): 2 fold and 3 fold; NDR autophosphorylation activity (32P, SDS PAGE, phosphoimager) (GST-hMOB1): Addition of GST-hMOB1 to HA-NDR kinase reactions stimulated NDR autophosphorylation activity
GST-NDR1 S281A | 0.028 | 0.952 | –
GST-NDR1 T74A | 0.207 | 7.82 | S100B-mediated increase of phosphorylation of Ser281 and Thr444 (immunoblot with phosphospecific antibodies) (bovine S100B (Sigma)): the T74A point mutation abolished the S100B-mediated increase of phosphorylation for both Ser281 and Thr444 residues without affecting the intrinsic NDR1 autophosphorylation
GST-NDR2 | – | – | rate of NDR2 autophosphorylation (bovine S100B (Sigma)): increases the rate of NDR2 autophosphorylation by ˜2-fold after 4 hours of incubation; specific NDR activity (bovine S100B (Sigma)): stimulates the specific NDR activity in a concentration dependent manner up to ˜4-fold
